This note sets out measurements from CN108948202A (BOAOXIN BIOTECHNOLOGY NANJING CO LTD, dated 2018).

The target of assay [1] is T1, 重组人PD1带his标签的蛋白 (Sino biological inc., cat#10377-H08H) (human, UniProt Q15116 25-167).
T1 construct: Detection antigen for serum titres and hybridoma screening; also called 人PD1-his蛋白抗原; PD1-his; not shown: his tag
Put plainly: ELISA, hybridoma supernatant on coated human PD1-his.

Another assay deals with T2, 生物素标记人PD1-Fc蛋白 (human, UniProt Q15116 25-167, limits assumed, biotin-labelled (site not stated)).
T2 construct: also called PD1Fc biotin; 人PD1抗原; not shown: Fc part
Put plainly: capture ELISA: antibody captured by anti-mouse IgG Fc, 60 nM biotinylated human PD1-Fc. (An ELISA detects its analyte on a solid surface through an enzyme-linked reagent.)

T1 sequence (Q15116 25-167 limits assumed): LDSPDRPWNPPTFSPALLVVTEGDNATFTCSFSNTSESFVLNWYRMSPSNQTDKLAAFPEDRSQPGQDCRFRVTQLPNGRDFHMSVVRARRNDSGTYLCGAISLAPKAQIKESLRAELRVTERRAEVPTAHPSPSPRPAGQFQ
T2 sequence (Q15116 25-167 limits assumed): as above

B1: D2G3 抗人PD1小鼠单克隆抗体 (antibody, V domains shown)
VH: QEQLKQSGPGLVAPSQTLSITCTVSGFSLESYGVDWVRQSPGKGLEWLGVIWGSGSTSYNSGLKSRLSISKDNSKKQVFLEMKSLQTDDTAMYYCAIDGGFASWGQGTLVTVSA
VL: DIVMTQAAPSVPVTPGESVSISCRSSKSLLHSNGNTYLYWFLQRPGQSPQRLIYYMSNLASGVPDRFSGRGSGTDFTLRISRVEAEDVGVYYCMQSLEYPYTFGGGTKLEIK
notes: Tested as a mouse monoclonal antibody from a hybridoma (supernatant or small-scale purified); also called D2G3抗体; 本发明的抗人PD1单克隆抗体
Regarding B1, the binding result (in assay [1]; with 生物素标记人PD1-Fc蛋白) was “binds” throughout.
